Results published in patent publication US11034736B2, “Anti-viral cnidarins” (priority 2014, dated 2021).

Key:
HIV-1RF = assay: XTT-tetrazolium anti-HIV assay, HIV-1RF in CEM-SS cells; assay type: cell-based; settings: HIV-1RF, T-tropic laboratory strain, CEM-SS cells, XTT, 6 days
Protocol: (§1) A 2,3-bis-[2-methoxy-4-nitro-5-sulfophenyl]-2H-tetrazolium-5-carboxanilide inner salt (XTT)-tetrazolium-based assay was used to determine the anti-HIV activity of CNID-1, -2 and -3 against a T-tropic laboratory strain (HIV-1RF) in T-lymphoblastic CEM-SS cells as described previously (Gulakowski et al., J. Virol. Methods, 33: 87-100 (1991)). CEM-SS cells were maintained in RPMI 1640 media without phenol red and supplemented with 10% fetal bovine serum (BioWhittaker), 2 mM L-glutamine (BioWhittaker), and 50 μg/ml gentamicin (BioWhittaker) (complete medium). Exponentially growing cells were washed and resuspended in complete medium, and a 50 μl aliquot containing 5×10^3 cells was added to individual wells of a 96-well round-bottom microtiter plate containing serial dilutions of the respective cnidarin protein in a volume of 100 μl of medium. Stock supernatants of HIV-1RF were diluted in complete medium to yield sufficient cytopathicity (80-90% cell kill in 6 days), and a 50 μl aliquot was added to appropriate wells. Plates were incubated for 6 days at 37° C. and then stained for cellular viability using XTT.
(§2) The HIV reverse transcriptase inhibitor 3′-Azido-3′-deoxythymidine (AZT) was used as a positive control. All assays were carried out in triplicate for all viruses and cells.

human PBMCs = assay: Toxicity in PHA-stimulated human PBMCs, XTT cell viability; settings: human PBMCs, XTT, 7 days
Protocol: The cultures were incubated for 7 days at 37° C./5% CO2. Efficacy of the compounds was evaluated by measuring the amount of reverse transcriptase in the culture supernatant and toxicity was evaluated using XTT to measure cell viability. AZT was evaluated in parallel as an assay control.

CEM-SS cells = assay: Direct toxicity to uninfected CEM-SS control cells (XTT); assay type: cell-based, human
Protocol: as §1, §2

PBMC = assay: Cell viability of PBMC cultures (CellTiter formazan dye reduction); assay type: cell-based, human
Text: To test the anti-HIV activity of CNID1 against HIV primary isolates in fresh human cells, monocyte-tropic HIV-1 strain Ba-L was obtained from the NIAID AIDS Research and Reference Reagent Program (National Institutes of Health, Bethesda, Md.). The low passage HIV-1 pediatric isolate ROJO was derived as described previously (Buckheit et al., AIDS Res. Hum. Retroviruses, 10: 1497-1506 (1994)). Human peripheral blood mononuclear cells (PBMCs) and macrophages were isolated from hepatitis and HIV seronegative donors following Ficoll-Paque centrifugation as described elsewhere (Gartner & Popovic, Techniques in HIV Research, Aldovini, A. and Walker B., eds., pp. 59-63, Stockton Press, New York, 1990). Antiviral assays were carried out with 3-day-old phytohaemagglutinin/interleukin-2 stimulated PBMCs or 6-day-cultured monocyte/macrophages. […] HIV-1 replication in PBMC (ROJO) or monocyte macrophage (Ba-L) cultures were determined by measurement of reverse transcriptase activity (Buckheit et al., Antiviral Res., 21: 247-265 (1993)) in the supernatants or p24 antigen expression by ELISA (Coulter, Hialeah, Fla.), respectively. Cell viability by formazan dye reduction was determined in replicated cultures using the CellTiter reagent (Promega, Madison, Wis.). […]

HIV-1IIIB = assay: Viral fusion assay, chemiluminescence in HeLa CD4 LTR β-gal cells; assay type: cell-based
Protocol: Attachment and fusion assays were performed in HeLa-CD4-LTR-β-galactosidase cell lines as described previously (Gartner & Popovic, (1990), supra) with the following modifications. Following the interaction of HIV-1IIIIIB with HeLa CD4 LTR β-gal cells, viral attachment to HeLa CD4 LTR β-gal cells was detected as cell-associated p24 antigen following a 1 hour adsorption of virus and vigorous washing for removal of unbound virus. Fusion of HIV-1IIIIB with HeLa CD4 LTR β-gal cells was detected by chemiluminescence using a single-step lysis and detection method (Tropix Gal-screen, Bedford, Mass.) and results reported as EC50 values. Chicago Sky Blue, a polysulfonic acid dye inhibitor of HIV attachment and fusion, was used as a positive control for all assays (Clanton et al., J. Acquired Immune Defic. Syndr., 5: 771-781 (1992)).

B1: CNID-1: HIV-inhibitory protein from soft coral Synthecium sp.; 172 amino acids, 18,122 Da, SEQ ID NO: 1 (protein)
chain: GRATLGQLKTSTIPPVTFDVPFDGANIPQDVRFTIATVNGGKGALYNAELGESAGHTIVLESDGDHPIPGTFDPKSGRGLDYLPRGLVLFSSHNYVGNMKMYTEPDSDITADFPPGTPFGVSSAITGEGSAFQLNTGIDHTGEFEIIPPNTKRNLAGVFDNEIRSVSPTGGK
HIV-1RF
  EC50: 0.0845 nM
Human PBMCs
  TC50: >0.5 µg/mL
CEM-SS cells
  CC50: 112 nM
PBMC
  CC50: 144 nM
HIV-1IIIB
  Inhibition of viral fusion: inhibit HIV viral fusion
HIV-1IIIB; read-out: Inhibition of Fusion EC50
  EC50: 1.49 nM
